Ends that are not written are not given here.
Assays:
[1] = test system: Bacillus cereus KCCM 12667; assay: Agar well diffusion test of purified bacteriocin; type: cell-based; conditions: Fig. 3C
Procedure: (§1) Antimicrobial activity against several gram-positive and gram-negative bacteria was assessed using the agar well diffusion method, with some modifications. Cultures were incubated in tryptic soy medium at 37°C for 60 h. Cell-free supernatants were prepared by centrifugation (3,800 ×g, 4°C, 30 min) and used as an antagonistic substance. Each pathogen at 7.0 log CFU/ml was spread on a TSA plate. An 8-mm-diameter well was created using a cork borer on the agar plate, and 50 μl of the cell-free supernatant was added to the wells. The plates were left undisturbed for a few hours to allow the supernatant to diffuse into the agar and then cultured at 37°C for 18 h. The diameter of the resultant growth inhibition zone was measured as a measure of antimicrobial activity.
The molecular weight of bacteriocin was determined by tricine sodium dodecyl sulfate-polyacrylamide gel electrophoresis (SDS-PAGE; Bio-Rad, USA) at 100 V for 5 h on a 20% polyacrylamide gel with an ultra-low-range molecular weight marker (1,060–26,600 Da; Sigma-Aldrich), followed by silver staining (Amersham Biosciences, Sweden). Direct detection was then performed to determine whether the protein bands corresponded to bacteriocin [23].

[2] = test system: Vibrio vulnificus ATCC 29306; assay: Inhibitory spectrum, well diffusion method; type: cell-based; set-up: key: +++: Greater than 15 mm; −: no inhibition zone; conditions: inhibition zone class
Procedure: as §1

[3] = test system: Shigella flexneri KCCM 11937; assay: Inhibitory spectrum, well diffusion method; type: cell-based; set-up: key: +++: Greater than 15 mm; −: no inhibition zone; conditions: inhibition zone class
Procedure: as §1

[4] = test system: Salmonella enteritidis CCARM 8206; assay: Inhibitory spectrum, well diffusion method; type: cell-based; set-up: key: +++: Greater than 15 mm; −: no inhibition zone; conditions: inhibition zone class
Procedure: as §1

[5] = test system: Cronobacter sakazakii KCTC2949; assay: Inhibitory spectrum, well diffusion method; type: cell-based; set-up: key: +++: Greater than 15 mm; −: no inhibition zone; conditions: inhibition zone class
Procedure: as §1

[6] = test system: Pseudomonas aeruginosa KCCM 12539; assay: Inhibitory spectrum, well diffusion method; type: cell-based; set-up: key: +++: Greater than 15 mm; −: no inhibition zone; conditions: inhibition zone class
Procedure: as §1

[7] = test system: Salmonella choleraesuis KCCM 40736; assay: Inhibitory spectrum, well diffusion method; type: cell-based; set-up: key: +++: Greater than 15 mm; −: no inhibition zone; conditions: inhibition zone class
Procedure: as §1

[8] = test system: Escherichia coli O157:H7 ATCC 43894; assay: Inhibitory spectrum, well diffusion method; type: cell-based; set-up: key: +++: Greater than 15 mm; −: no inhibition zone; conditions: inhibition zone class
Procedure: as §1

[9] = test system: Shigella sonnei KCCM 41282; assay: Inhibitory spectrum, well diffusion method; type: cell-based; set-up: key: +++: Greater than 15 mm; −: no inhibition zone; conditions: inhibition zone class
Procedure: as §1

[10] = test system: Vibrio parahaemolyticus KCCM 11965; assay: Inhibitory spectrum, well diffusion method; type: cell-based; set-up: key: +++: Greater than 15 mm; −: no inhibition zone; conditions: inhibition zone class
Procedure: as §1

lipase (E.C. 3.1.1.3) = assay: Effect of enzyme treatment on antimicrobial activity; type: in vitro ADME; conditions: 30 min
Procedure: (§2) To evaluate the pH stability of the antimicrobial substance, the buffers were prepared with 0.1 M glycine-HCl buffer (pH between 2 and 4), 0.1 M sodium acetate buffer (pH between 4 and 6), 0.1 M sodium phosphate buffer (pH between 6 and 8), and 0.1 M Tris-HCl buffer (pH between 8 and 10). The antimicrobial substance was mixed with buffer at a ratio of 1:15 and incubated at 37°C for 12 h, and relative antimicrobial activity was measured. To evaluate temperature stability, purified bacteriocin was incubated at 0°C, 20°C, 40°C, 60°C, 70°C, 80°C, or 90°C for 12 h, and at 100°C for 1 h. Relative antimicrobial activity was assessed using the agar well diffusion method, and the zone of inhibition was measured in millimeters. To assess the effect of various enzymes on antimicrobial activity, lysozyme (E.C. 3.2.1.17), α-amylase (E.C. 3.2.1.1), lipase (E.C. 3.1.1.3), protease (E.C. 3.4.24.31), and proteinase K (E.C. 3.4.21.64) (all from Sigma-Aldrich) and pronase E (E.C. 3.4.24.4; Merck Millipore, USA) were prepared in sodium phosphate buffer (pH 7.0) at a final concentration of 4 mg/ml. Purified bacteriocin was mixed with each enzyme at 2 mg/ml and incubated at 37°C for 30 min, and the relative antimicrobial activity was measured.

[11] = target: T1, proteinase K (E.C. 3.4.21.64) (Parengyodontium album, UniProt P06873); assay: as above; type: in vitro ADME; conditions: 30 min; for effect of proteinase K treatment on antimicrobial activity: 2 mg/ml, pH 7.0, 37°C
T1 construct: purchased Sigma-Aldrich
Procedure: as §2

α-amylase (E.C. 3.2.1.1) = assay: as above; type: in vitro ADME; conditions: 2 mg/ml, pH 7.0, 37°C, 30 min
Procedure: as §2

[12] = test system: Bacillus cereus KCCM 40152; assay: Inhibitory spectrum, well diffusion method; type: cell-based; conditions: for antimicrobial activity against B. cereus: well diffusion method
Procedure: as §1

[13] = test system: Listeria monocytogenes ATCC 15313; assay: Inhibitory spectrum, well diffusion method; type: cell-based; conditions: for antimicrobial activity against L. monocytogenes: well diffusion method
Procedure: as §1

[14] = pH stability of bacteriocin, relative antimicrobial activity; type: physicochemical; conditions: 12 h; for Relative activity (%): substance:buffer 1:15, 37°C, read-out agar well diffusion
Procedure: as §2

gram-negative bacteria = assay: Inhibitory spectrum, well diffusion method, gram-negative bacteria as a group; type: cell-based
Procedure: as §1

[15] = test system: Staphylococcus aureus ATCC 25923; assay: Inhibitory spectrum, well diffusion method; type: cell-based; set-up: key to Antibacterial activity: +++: Greater than 15 mm; −: no inhibition zone
Procedure: as §1

B. cereus = assay: Antimicrobial activity in arbitrary units, serial 2-fold dilutions, of purification steps; type: cell-based, Bacillus cereus
Procedure: The protein content in the bacteriocin solution was measured using the modified Lowry method. A 50 μl volume of bacteriocin was mixed with 550 μl of biuret reagent (0.75 mM cupric sulfate and 94 mM sodium hydroxide) and incubated for 10 min at 25°C. A 25 μl volume of Folin–Ciocalteu’s phenol reagent (Sigma-Aldrich, USA) was then added, followed by incubation for 30 min at 25°C. Absorbance was measured at 725 nm using a VersaMax ELISA Microplate Reader (Molecular Devices, USA), and a standard curve was constructed using bovine serum albumin (Sigma-Aldrich). Antimicrobial activity was measured as arbitrary units per milliliter of purified microbial culture using serial 2-fold dilutions of the antimicrobial substance. […] AU/mL was calculated by multiplying AU by the dilution factor.

[16] = Temperature stability of bacteriocin, relative antimicrobial activity; type: physicochemical; conditions: for temperature range of stable activity: 12 h incubation; for Relative activity (%): 12 h, read-out agar well diffusion
Procedure: as §2

[17] = listed as purified protein from B. subtilis HD15
[18] = listed as B. subtilis HD15 bacteriocin
[19] = well diffusion, inhibition zone class

T1 sequence (P06873 106-384): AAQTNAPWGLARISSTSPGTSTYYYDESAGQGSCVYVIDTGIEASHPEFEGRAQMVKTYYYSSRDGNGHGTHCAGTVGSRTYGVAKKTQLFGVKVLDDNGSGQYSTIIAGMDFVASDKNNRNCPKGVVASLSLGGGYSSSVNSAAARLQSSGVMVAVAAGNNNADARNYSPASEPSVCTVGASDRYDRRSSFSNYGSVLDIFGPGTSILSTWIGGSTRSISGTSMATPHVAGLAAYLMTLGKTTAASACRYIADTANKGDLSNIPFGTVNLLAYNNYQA

SIGACLVDGPIPVIEG [bacteriocin from Bacillus subtilis HD15, 3.6 kDa bacteriocin related to subtilosin A, purified from B. subtilis HD15 culture by ammonium sulfate, DEAE-Sepharose and Sephacryl steps]
Antibacterial activity, zone around purified bacteriocin [1]: clear zone | Antibacterial activity [2]: − | Antibacterial activity [3]: − | Antibacterial activity [4]: − | Antibacterial activity [5]: − | Antibacterial activity [6]: − | Antibacterial activity [7]: − | Antibacterial activity [8]: − | Antibacterial activity [9]: − | Antibacterial activity [10]: − | effect of lipase treatment on antibacterial activity (lipase (E.C. 3.1.1.3); 2 mg/ml, pH 7.0, 37°C): no effect | Relative activity (%) (lipase (E.C. 3.1.1.3); lipase 2 mg/ml, sodium phosphate buffer pH 7.0, 37°C, read-out relative antimicrobial activity): 100% | effect of proteinase K treatment on antimicrobial activity [11]: lost | effect of proteinase K treatment on antimicrobial activity [11, 17]: completely inhibited | Relative activity (%) ([11]; proteinase K 2 mg/ml, sodium phosphate buffer pH 7.0, 37°C, read-out relative antimicrobial activity): 0% | effect of amylase treatment on antibacterial activity (α-amylase (E.C. 3.2.1.1)): no effect | antimicrobial activity against B. cereus [12, 18]: strong inhibition | antimicrobial activity against B. cereus [12, 17]: high antimicrobial activity | Antibacterial activity [12, 19]: +++ (Greater than 15 mm) | antimicrobial activity against L. monocytogenes [13, 18]: strong inhibition | antimicrobial activity against L. monocytogenes [13, 17]: high antimicrobial activity | Antibacterial activity [13, 19]: +++ (Greater than 15 mm) | Relative activity (%) ([14]; pH 2, 0.1 M glycine-HCl buffer): 50% | Relative activity (%) ([14]; pH 3, 0.1 M glycine-HCl buffer): 80% | antimicrobial activity remaining ([14]; pH 3 to 9 as worded in text, 37°C): 80% | Relative activity (%) ([14]; pH 4, 0.1 M glycine-HCl or sodium acetate buffer): 95% | Relative activity (%) ([14]; pH 5, 0.1 M sodium acetate buffer): 100% | antimicrobial activity maintained ([14]; pH 5–7, 37°C): 100% | Relative activity (%) ([14]; pH 6, 0.1 M sodium acetate or sodium phosphate buffer): 100% | Relative activity (%) ([14]; pH 7, 0.1 M sodium phosphate buffer): 100% | Relative activity (%) ([14]; pH 8, 0.1 M sodium phosphate or Tris-HCl buffer): 95% | Relative activity (%) ([14]; pH 9, 0.1 M Tris-HCl buffer): 80% | Relative activity (%) ([14]; pH 10, 0.1 M Tris-HCl buffer): 30% | antimicrobial activity against gram-negative bacteria (gram-negative bacteria): no activity | antimicrobial activity against Staphylococcus aureus ([15]; well diffusion method): no activity | Antibacterial activity [15, 19]: − | Total activity (AU) (B. cereus; purification step from 500 ml culture, reciprocal of maximum 2-fold dilution giving a transparent zone, indicator strain not given): 10,500 AU | Specific activity (AU/mg) (B. cereus; total activity per total protein (modified Lowry) of purification step): 413.4 AU/mg | antimicrobial activity after incubation ([16]; 0–50°C for 12 h): 100% | temperature range of stable activity [16]: up to 70 °C | temperature range of stable activity [16, 17]: 0–70 °C | activity remaining ([16]; after 12 h at 70°C and over a pH range between 3 and 9): more than 70% | Relative activity (%) ([16]; heat 50°C): 100% | Relative activity (%) ([16]; heat 60°C): 95% | Relative activity (%) ([16]; heat 70°C): 70% | Relative activity (%) ([16]; heat 80°C): 20% | Relative activity (%) ([16]; heat 90°C): 0%
